Biological target: transferrin receptor (UniProt P02786)
Assay: SPR

Sequence of transferrin receptor (P02786 whole entry): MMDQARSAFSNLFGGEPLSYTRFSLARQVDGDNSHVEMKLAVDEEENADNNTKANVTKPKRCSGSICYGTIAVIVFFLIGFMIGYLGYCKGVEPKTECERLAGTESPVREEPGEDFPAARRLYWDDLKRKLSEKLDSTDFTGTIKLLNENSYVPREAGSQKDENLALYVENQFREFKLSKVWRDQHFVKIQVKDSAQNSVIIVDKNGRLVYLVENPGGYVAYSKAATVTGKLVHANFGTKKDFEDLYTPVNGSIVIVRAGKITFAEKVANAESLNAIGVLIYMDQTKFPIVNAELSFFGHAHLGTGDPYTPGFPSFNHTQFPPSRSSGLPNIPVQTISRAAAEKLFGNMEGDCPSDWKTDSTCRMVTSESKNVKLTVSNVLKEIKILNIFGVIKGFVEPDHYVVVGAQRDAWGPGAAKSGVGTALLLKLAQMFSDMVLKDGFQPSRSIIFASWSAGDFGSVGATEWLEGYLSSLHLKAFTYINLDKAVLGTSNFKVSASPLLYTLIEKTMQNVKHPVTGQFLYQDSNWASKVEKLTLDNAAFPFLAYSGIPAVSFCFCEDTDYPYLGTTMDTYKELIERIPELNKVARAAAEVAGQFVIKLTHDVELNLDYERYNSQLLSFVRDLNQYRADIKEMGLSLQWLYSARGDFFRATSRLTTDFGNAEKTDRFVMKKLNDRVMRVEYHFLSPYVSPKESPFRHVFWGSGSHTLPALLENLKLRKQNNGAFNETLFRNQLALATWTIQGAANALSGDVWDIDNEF

Work on “SARS-CoV-2 spike protein (from UniProt P0DTC2 14-1273) (natural protein)” yielded a Kd of 2.95 nM.

— article doi:10.1101/2020.10.23.350348
